Source: patent US20150231240A1, “ANTI-C16ORF54 ANTIBODIES AND METHODS OF USE THEREOF” (priority 2012, published 2015)

Tests used:
[1] = molecular target: T1, C16orf54 on peripheral blood and bone marrow mononuclear cells (Homo sapiens, UniProt Q6UWD8); experiment: Flow cytometry of PBMC and BMMC from healthy donors; format: binding
T1 construct: endogenous in cells; host or cells: PBMC and BMMC from healthy donors
T1 sequence (Q6UWD8 1-224): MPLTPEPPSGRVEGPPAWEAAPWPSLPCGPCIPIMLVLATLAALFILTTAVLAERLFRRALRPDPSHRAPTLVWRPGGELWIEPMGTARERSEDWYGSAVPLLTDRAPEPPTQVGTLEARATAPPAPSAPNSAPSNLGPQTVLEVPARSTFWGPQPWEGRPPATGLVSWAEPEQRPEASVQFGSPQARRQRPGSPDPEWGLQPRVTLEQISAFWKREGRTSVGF
Procedure: Anti-C16orf54 antibodies were tested for their binding to various cell lines and primary samples (e.g., AML, CLL, lymphoma) using flow cytometry. Copy number of C16orf54 on the various cell lines was determined. Peripheral blood mononuclear (PBMC) and bone marrow mononuclear (BMMC) cells from healthy donors were immunofluorescently stained using the antibodies of CD19, CD3, CD14, CD34, CD33, lineage markers, in addition to an anti-C16orf54 antibody and isotype control antibody, and then evaluated by flow cytometric analysis. […] In single lineage gated populations, C16orf54 is broadly expressed in CD19+ B cells, CD14+ monocytes, CD34+/lineage—progenitor cells and CD33+ myeloid cells, whereas CD3+ T cells have a distinctively low to undetectable level of C16orf54.

[2] = molecular target: T2, human C16orf54 (human, UniProt Q6UWD8 1-224); experiment: flow cytometry, 10 ug/ml antibody, D42M1-huC16orf54 cells
T2 construct: also called huC16orf54; hC16orf54
T2 sequence: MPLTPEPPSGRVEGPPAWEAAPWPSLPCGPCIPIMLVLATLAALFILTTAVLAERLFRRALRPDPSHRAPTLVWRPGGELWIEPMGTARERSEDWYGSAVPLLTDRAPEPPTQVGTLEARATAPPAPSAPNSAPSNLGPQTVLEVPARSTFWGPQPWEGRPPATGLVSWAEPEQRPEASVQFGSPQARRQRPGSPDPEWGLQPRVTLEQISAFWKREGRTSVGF
Summary of the method: (§1)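 Sarcoma cells transfected with human or cyno C16orf54 were Fc-blocked, stained with antibody for 1 h at 4° C., then PE anti-mouse IgG Fcγ secondary 30 min at 4° C., with TO-PRO-3 viability dye. Value is live-cell PE median fluorescence divided by that of IgG isotype control.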

[3] = molecular target: T3, cynomolgus monkey C16orf54 (cynomolgus monkey (Macaca fascicularis), UniProt Q6UWD8 1-224 (human entry)); experiment: flow cytometry, 10 ug/ml antibody, F279-cyno-C16orf54 cells
T3 construct: also called cyno C16orf54; cyno-C16orf54
T3 chain: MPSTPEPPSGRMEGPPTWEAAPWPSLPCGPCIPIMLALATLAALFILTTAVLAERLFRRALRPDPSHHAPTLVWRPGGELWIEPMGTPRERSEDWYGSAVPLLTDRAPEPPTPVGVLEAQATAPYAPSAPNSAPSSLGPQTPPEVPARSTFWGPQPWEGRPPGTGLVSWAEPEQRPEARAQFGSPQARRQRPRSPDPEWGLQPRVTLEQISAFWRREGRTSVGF
Summary of the method: as §1

[4] = molecular target: T2, human C16orf54; experiment: flow cytometry titration, KG1 cells (endogenous human C16orf54)
[5] = molecular target: T2, human C16orf54; experiment: flow cytometry, KG-1 leukemia cells (endogenous C16orf54), 6 repeats
[6] = molecular target: T2, human C16orf54; experiment: flow cytometry, OCI-AML3 leukemia cells (endogenous C16orf54), 3 repeats
[7] = molecular target: T2, human C16orf54; experiment: flow cytometry, Granta-519 lymphoma cells (endogenous C16orf54), 1 repeat
[8] = molecular target: T2, human C16orf54; experiment: flow cytometry, HEL92.1.7 leukemia cells (endogenous C16orf54), 3 repeats
[9] = molecular target: T2, human C16orf54; experiment: flow cytometry, KARPAS-1106P lymphoma cells (endogenous C16orf54), 1 repeat
[10] = molecular target: T2, human C16orf54; experiment: flow cytometry, BxPC-3 pancreatic cancer cells (endogenous C16orf54), 3 repeats
[11] = molecular target: T2, human C16orf54; experiment: flow cytometry, CFPAC-1 pancreatic cancer cells (endogenous C16orf54), 3 repeats
[12] = molecular target: T4, N-terminal 32 amino acids of huC16orf54 coupled to biotin (human, biotin at the C-terminus); experiment: biolayer interferometry (OctetQK384), hybridoma supernatant on streptavidin sensors coated with the biotinylated peptide
T4 construct: also called 32 amino acid N-terminal extracellular domain
T4 peptide: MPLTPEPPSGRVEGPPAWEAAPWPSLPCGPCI
Procedure: Eight anti-huC16orf54 monoclonal antibodies were further screened for binding and subsequent off-rate analysis using the OctetQK384® sytem (ForteBio). Hybridoma supernatants were screened for association to and dissocation from streptavidin sensors coated with the N-terminal 32 amino acids of huC16orf54 coupled to biotin, and the calculated offrates (kdis) are shown in Table 31. Cloned hybridomas with […] off-rates were carried forward for antibody purification.

[13] = molecular target: T5, Human C16-ECD peptide (aa1-31) (human); experiment: column head 'Full kinetics (nM)' in the table of the C16orf54 peptide binding assays; method and antigen not described; 4 runs
T5 construct: Coated on plates in the peptide ELISA; also called human extracellular domain peptide
T5 peptide: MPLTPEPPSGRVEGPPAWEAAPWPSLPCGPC

Molecule | staining of PBMC and BMMC from healthy donors (C16orf54 expression) [1] | Median fold change relative to IgG control [2] [fold] | Median fold change relative to IgG control [3] [fold] | EC50 [4] [nM] | Average MFI fold change relative to isotype control [5] [fold] | Average MFI fold change relative to isotype control [6] [fold] | Average MFI fold change relative to isotype control [7] [fold] | Average MFI fold change relative to isotype control [8] [fold] | Average MFI fold change relative to isotype control [9] [fold] | Average MFI fold change relative to isotype control [10] [fold] | Average MFI fold change relative to isotype control [11] [fold] | koff [12] [s⁻¹] | Kd [13] [nM]
R29-7-1C: murine anti-C16orf54 monoclonal antibody, IgG2a; VH SEQ ID NO: 8, VL SEQ ID NO: 10 (antibody, V domains shown, R29-7-1C heavy chain variable region; R29-7-1C light chain variable region) VH: MRVLILLWLFTAFPGILSDVQLQESGPGLVKPSQSLSLTCTVTGYSITSDYAWNWIRQFPGNKLEWMGYISYSGSIRYNPSLKSRISITRDTSKNQFFLQLNSVTTEDTATYYCAREKYDNYYYAMDYWGQGTSVTVSS VL: MDSQAQVLMLLLLWVSGTCGDIVMSQSPSSLAVSVGEKVTLSCKSSQNLLYSTNQKNYLAWYQQKPGQSPKLLIYWASTRESGVPDRFTGSGSGTDFTLTISSVKAEDLAVYYCQQYYSYRTFGGGTKLEIK | low but positive expression of C16orf54 with slightly higher level in BMMCs | – | – | – | – | – | – | – | – | – | – | – | –
R29-7-1C (antibody, V domains shown, Murine monoclonal IgG2a from a hybridoma) VH: DVQLQESGPGLVKPSQSLSLTCTVTGYSITSDYAWNWIRQFPGNKLEWMGYISYSGSIRYNPSLKSRISITRDTSKNQFFLQLNSVTTEDTATYYCAREKYDNYYYAMDYWGQGTSVTVSS VL: DIVMSQSPSSLAVSVGEKVTLSCKSSQNLLYSTNQKNYLAWYQQKPGQSPKLLIYWASTRESGVPDRFTGSGSGTDFTLTISSVKAEDLAVYYCQQYYSYRTFGGGTKLEIK | – | 205 | 53.7 | 0.3 | 16.9 | 3 | 3.8 | 5 | 10.5 | 7 | 1.6 | 0.0102 | 0.77
